Data on three substances can be found in paper PMC6588359.

The test system of data set [1] is amyloid-β40 (Aβ40). Nature of the data set: native MS; native nano-ESI-IMS-MS, positive ionization; Aβ40 alone or 1:1 mol/mol with Aβ_(16–22); samples incubated 5 min at 37°C without agitation, analysed immediately following mixing.
The target in data set [2] is amyloid-β40 (Aβ40).

With Aβ_(16–22), in the data set on amyloid-β40 (Aβ40) [1], the “percent heterodimers by total ion count” value was 1.0 ± 0.5%.
On to Aβ_(16–22) (peptide), for which, in the data set with amyloid-β40 (Aβ40) [2], the ThT fluorescence: average t1/2 of Aβ40 aggregation with sonicated Aβ (16–22) fibrils turned out to be 6.2 h and the ThT fluorescence: average t1/2 of Aβ40 aggregation with unfragmented (unsonicated) Aβ (16–22) fibrils came to 7.2 h.
For amyloid-β40 (Aβ40) (peptide), the stoichiometry N in the data set with amyloid-β40 (Aβ40) [1] came to 1.

As usually defined, the stoichiometry N is a count of units in the complex or per binding partner.
